Series [1] deals with Full-length FLAG-tagged recombinant SMCHD1 (mouse) (UniProt Q6P5D8). Nature of the series: negative-stain electron microscopy; purified FLAG-rSMCHD1, 100 ng/ml, 0.75% uranyl formate, 80 kV.
Series [2] concerns the molecule itself. The series is described as follows: SEC; affinity-purified wild-type and mutant hinge domains on a Superdex 75 10/300 column, 0.5-ml fractions, A280 and Coomassie-stained SDS-PAGE.

Regarding “Full-length FLAG-tagged recombinant SMCHD1, Q6P5D8 1-2007”, the stoichiometry N in series [1] was 2.

B1: SMCHD1 hinge domain, recombinant wild type (residues 1616 to 1963) (domain or fragment, mouse, UniProt Q6P5D8 1616-1963, looked up)
chain: NDVKKQQQMAALTKEKDELSKSITMYRSLFDANKQLVDEMKCQAEEAKLKETQLRNELKAYNIDIPATQQTTHIEALLEKKITEQNELKKRPRRLCTLPNYTKRSGDILGKIAHLAQIEDDRAAMVISWHLASDMDCVVTLTTDAARAIYDETQGRQQVLPLDSIYRKTLPDWKRPLPHFRNGKLHFKPFGNPVFARDLLTFPDNIEHCETVFGMLLGDTIILDNLDAANHYRKEVVKITHCPTLLTRDGDRIRSNGKFGGLQNKAPPMDKLRGMVFGAPVPKQCVVLGKQIDLIQQYRTALYRLSSVNEDLDNQLQYLHTPDMKKKKQELDEQEKSLKRIEQKLGMT
notes: SMCHD1 SMC hinge domain, mouse, residues 1616 to 1963; Cloned into pET28a; also called wild-type HD; WT hinge; source: E. coli BL21-RosettaBlue, purified (Talon resin)
In the case of B1, in series [2], the “stoichiometry N” value came to 2.

The record behind these values is paper PMC4628070, “Independent Mechanisms Target SMCHD1 to Trimethylated Histone H3 Lysine 9-Modified Chromatin and the Inactive X Chromosome” (Molecular and Cellular Biology, 2015).
